Reference: PMC8465894

B1: PIGT: N164Q (protein)
parent chain: MAAAMPLALLVLLLLGPGGWCLAEPPRDSLREELVITPLPSGDVAATFQFRTRWDSELQREGVSHYRLFPKALGQLISKYSLRELHLSFTQGFWRTRYWGPPFLQAPSGAELWVWFQDTVTDVDKSWKELSNVLSGIFCASLNFIDSTNTVTPTASFKPLGLANDTDHYFLRYAVLPREVVCTENLTPWKKLLPCSSKAGLSVLLKADRLFHTSYHSQAVHIRPVCRNARCTSISWELRQTLSVVFDAFITGQGKKDWSLFRMFSRTLTEPCPLASESRVYVDITTYNQDNETLEVHPPPTTTYQDVILGTRKTYAIYDLLDTAMINNSRNLNIQLKWKRPPENEAPPVPFLHAQRYVSGYGLQKGELSTLLYNTHPYRAFPVLLLDTVPWYLRLYVHTLTITSKGKENKPSYIHYQPAQDRLQPHLLEMLIQLPANSVTKVSIQFERALLKWTEYTPDPNHGFYVSPSVLSALVPSMVAAKPVDWEESPLFNSLFPVSDGSNYFVRLYTEPLLVNLPTPDFSMPYNVICLTCTVVAVCYGSFYNLLTRTFHIEEPRTGGLAKRLANLIRRARGVPPL
B2: PIGT: N291Q (protein)
parent chain: B1 parent chain
B3: PIGT: N327Q (protein)
parent chain: B1 parent chain
B4: PIGS: N267Q (protein)
parent chain: MAAAGAAATHLEVARGKRAALFFAAVAIVLGLPLWWKTTETYRASLPYSQISGLNALQLRLMVPVTVVFTRESVPLDDQEKLPFTVVHEREIPLKYKMKIKCRFQKAYRRALDHEEEALSSGSVQEAEAMLDEPQEQAEGSLTVYVISEHSSLLPQDMMSYIGPKRTAVVRGIMHREAFNIIGRRIVQVAQAMSLTEDVLAAALADHLPEDKWSAEKRRPLKSSLGYEITFSLLNPDPKSHDVYWDIEGAVRRYVQPFLNALGAAGNFSVDSQILYYAMLGVNPRFDSASSSYYLDMHSLPHVINPVESRLGSSAASLYPVLNFLLYVPELAHSPLYIQDKDGAPVATNAFHSPRWGGIMVYNVDSKTYNASVLPVRVEVDMVRVMEVFLAQLRLLFGIAQPQLPPKCLLSGPTSEGLMTWELDRLLWARSVENLATATTTLTSLAQLLGKISNIVIKDDVASEVYKAVAAVQKSAEELASGHLASAFVASQEAVTSSELAFFDPSLLHLLYFPDDQKFAIYIPLFLPMAVPILLSLVKIFLETRKSWRKPEKTD
B5: PIGS: N370Q (protein)
parent chain: B4 parent chain
B6: GPAA1: N203Q (protein)
parent chain: MGLLSDPVRRRALARLVLRLNAPLCVLSYVAGIAWFLALVFPPLTQRTYMSENAMGSTMVEEQFAGGDRARAFARDFAAHRKKSGALPVAWLERTMRSVGLEVYTQSFSRKLPFPDETHERYMVSGTNVYGILRAPRAASTESLVLTVPCGSDSTNSQAVGLLLALAAHFRGQIYWAKDIVFLVTEHDLLGTEAWLEAYHDVNVTGMQSSPLQGRAGAIQAAVALELSSDVVTSLDVAVEGLNGQLPNLDLLNLFQTFCQKGGLLCTLQGKLQPEDWTSLDGPLQGLQTLLLMVLRQASGRPHGSHGLFLRYRVEALTLRGINSFRQYKYDLVAVGKALEGMFRKLNHLLERLHQSFFLYLLPGLSRFVSIGLYMPAVGFLLLVLGLKALELWMQLHEAGMGLEEPGGAPGPSVPLPPSQGVGLASLVAPLLISQAMGLALYVLPVLGQHVATQHFPVAEAEAVVLTLLAIYAAGLALPHNTHRVVSTQAPDRGWMALKLVALIYLALQLGCIALTNFSLGFLLATTMVPTAALAKPHGPRTLYAALLVLTSPAATLLGSLFLWRELQEAPLSLAEGWQLFLAALAQGVLEHHTYGALLFPLLSLGLYPCWLLFWNVLFWK

What was measured:
[1] = rescue of surface CD55 in PIGT-KO cells, flow cytometry; conditions: glycan lost; control: wild-type PIGT
[2] = rescue of surface CD55 in PIGS-KO cells, flow cytometry; conditions: glycan lost; control: wild-type PIGS
[3] = rescue of surface CD55 in GPAA1-KO cells, flow cytometry; conditions: glycan lost; control: wild-type GPAA1

Protein	enzymatic_activity [1]	enzymatic_activity [2]	further results
B1	no change		
B2	no change		
B3	no change		
B4		no change	
B5		no change	
B6			enzymatic_activity [3]: no change
